Consider one molecule from PMC2857867.

A word on the Kd: it is a measure of binding affinity in units of concentration. Usually kon stands for the rate constant with which the complex forms. High values mean fast association, low ones slow association.

The test has as its target VACV strain WR IFNα/βBP B18 (vaccinia virus strain Western Reserve), P25213. As to the kind of experiment: SPR. The following applies: remark: other sources report otherwise.

B1: hIL-29, Q8IU54 20-200 (ligand)
chain: GPVPTSKPTTTGKGCHIGRFKSLSPQELASFKKARDALEESLKLKNWSCSSPVFPGNWDLRLLQVRERPVALEAELALTLKVLEAAAGPALEDVLDQPLHTLHHILSQLQACIQPQPTAGPRPRGRLHHWLHRLQEAPKKESAGCLEASVTFNLFRLLTRDLKYVADGNLCLRTSTHPEST
In turn, B1 showed a Kd of 13.5 nM and a kon of 193000 M⁻¹ s⁻¹.
